Measurements from patent EP4650366A1 (Beijing Tuo Jie Biopharmaceutical Co. Ltd., dated 2025).
Where two headings read alike, the source gives them in different places.

T1: human TGFβ2 expressed by transfected HEK293E cells (human, UniProt P61812 21-414)
T1 construct: whole, on cells
T1 sequence (looked up): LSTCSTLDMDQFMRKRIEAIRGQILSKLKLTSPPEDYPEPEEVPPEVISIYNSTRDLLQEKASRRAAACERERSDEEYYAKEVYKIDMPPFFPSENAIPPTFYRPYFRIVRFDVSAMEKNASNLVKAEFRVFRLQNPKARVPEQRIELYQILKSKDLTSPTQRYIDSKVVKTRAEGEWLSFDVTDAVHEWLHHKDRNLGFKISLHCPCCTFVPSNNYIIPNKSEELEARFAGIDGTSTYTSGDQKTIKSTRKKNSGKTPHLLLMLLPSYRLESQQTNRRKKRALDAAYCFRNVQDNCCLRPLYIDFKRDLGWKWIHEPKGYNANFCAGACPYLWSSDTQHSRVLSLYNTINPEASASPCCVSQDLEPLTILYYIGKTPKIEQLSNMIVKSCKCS

T2: human GARP-TGFβ2 complex expressed by transfected HEK293E cells (human, UniProt P61812 21-414; Q14392 20-662)
T2 construct: whole, on cells; also called TGFβ2-GARP complex; TGFβ2 + GARP
T2 sequence (looked up) 1: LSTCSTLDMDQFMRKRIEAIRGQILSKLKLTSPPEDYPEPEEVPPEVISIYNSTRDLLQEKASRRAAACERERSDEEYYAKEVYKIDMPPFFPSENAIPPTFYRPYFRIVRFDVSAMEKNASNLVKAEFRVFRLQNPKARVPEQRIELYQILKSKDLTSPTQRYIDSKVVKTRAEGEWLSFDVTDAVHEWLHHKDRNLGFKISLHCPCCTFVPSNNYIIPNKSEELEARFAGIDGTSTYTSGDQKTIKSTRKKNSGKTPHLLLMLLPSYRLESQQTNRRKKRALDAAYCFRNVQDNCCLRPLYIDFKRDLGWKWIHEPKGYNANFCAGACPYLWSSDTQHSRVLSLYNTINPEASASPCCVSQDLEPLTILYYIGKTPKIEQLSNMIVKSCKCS
T2 sequence (looked up) 2: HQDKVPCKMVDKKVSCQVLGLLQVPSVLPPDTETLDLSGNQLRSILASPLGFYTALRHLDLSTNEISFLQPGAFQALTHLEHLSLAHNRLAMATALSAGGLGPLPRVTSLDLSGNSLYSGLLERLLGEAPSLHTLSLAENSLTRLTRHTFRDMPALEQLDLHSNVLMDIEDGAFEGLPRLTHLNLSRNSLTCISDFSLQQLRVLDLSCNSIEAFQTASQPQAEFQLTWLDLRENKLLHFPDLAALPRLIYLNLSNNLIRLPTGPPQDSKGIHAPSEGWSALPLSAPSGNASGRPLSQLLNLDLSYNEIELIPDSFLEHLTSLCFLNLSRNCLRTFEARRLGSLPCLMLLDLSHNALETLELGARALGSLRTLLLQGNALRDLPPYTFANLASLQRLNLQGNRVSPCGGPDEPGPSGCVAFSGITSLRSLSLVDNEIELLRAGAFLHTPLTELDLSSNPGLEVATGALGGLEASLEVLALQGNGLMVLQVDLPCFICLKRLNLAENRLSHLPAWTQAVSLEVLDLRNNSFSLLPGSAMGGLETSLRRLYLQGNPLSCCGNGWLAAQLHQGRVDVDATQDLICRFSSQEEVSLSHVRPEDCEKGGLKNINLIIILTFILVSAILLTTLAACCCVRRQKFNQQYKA


Experiments:
Human GARP-TGFβ1 complex [1] = target: T3, Human GARP-TGFβ1 complex (human, UniProt Q14392 20-627; P01137 30-390); assay: SPR (Biacore T200), method of Example 4
T3 construct: Soluble recombinant complex, co-expressed in ExpiCHO cells and purified; also called human GARP/TGFβ1 protein

Mouse GARP-TGFβ1 complex = target: T4, Mouse GARP-TGFβ1 complex (mouse, UniProt G3XA59 18-628; P04202 30-390); assay: SPR (Biacore T200), method of Example 4
T4 construct: Soluble recombinant complex, co-expressed in ExpiCHO cells and purified; also called Murine GARP-TGFβ1 complex

Human GARP-TGFβ1 complex [2] = target: T3, Human GARP-TGFβ1 complex; assay: SPR, method of Example 4; reference H27; antigen not given, taken as the human GARP-TGFβ1 complex as in Table 11
Human GARP-TGFβ1 complex [3] = target: T3, Human GARP-TGFβ1 complex; assay: SPR (Biacore T200), method of Example 4; remark: listed apart in the source
[4] = target: T1, human TGFβ2 expressed by transfected …; assay: flow cytometry on transfected HEK293E cells, FITC anti-human Fc
[5] = target: T2, human GARP-TGFβ2 complex expressed by …; assay: as above
[6] = target: T5, human TGFβ1 expressed by transfected cells (human, UniProt P01137 30-390); assay: flow cytometry on transfected HEK293E cells, 10 nM antibody
T5 construct: whole, on cells; also called human pro-TGFβ1

[7] = target: T6, human GARP-TGFβ1 complex expressed by transfected cells (human, UniProt P01137 30-390; Q14392 20-662); assay: as above
T6 construct: whole, on cells; also called TGFβ1-GARP complex; TGFβ1 + GARP

[8] = target: T7, mouse GARP-TGFβ1 complex expressed by transfected cells (mouse, UniProt P04202 30-390; G3XA59 18-663); assay: as above
T7 construct: whole, on cells; also called mTGFβ1-mGARP complex; mTGFβ1 + mGARP

[9] = target: T8, mouse TGFβ1 expressed by transfected cells (mouse, UniProt P04202 30-390); assay: as above
T8 construct: whole, on cells; also called mTGFβ1; murine TGFβ1
T8 sequence (P04202 30-390): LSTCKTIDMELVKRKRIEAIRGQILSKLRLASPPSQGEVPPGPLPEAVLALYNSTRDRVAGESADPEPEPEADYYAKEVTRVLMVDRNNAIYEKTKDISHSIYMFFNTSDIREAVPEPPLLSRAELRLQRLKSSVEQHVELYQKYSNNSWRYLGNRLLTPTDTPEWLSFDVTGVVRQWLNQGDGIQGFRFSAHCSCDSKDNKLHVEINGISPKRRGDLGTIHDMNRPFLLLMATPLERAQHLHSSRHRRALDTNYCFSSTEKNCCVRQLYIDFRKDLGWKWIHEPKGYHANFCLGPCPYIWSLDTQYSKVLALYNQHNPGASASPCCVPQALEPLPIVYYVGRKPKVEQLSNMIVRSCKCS

T4 sequence (G3XA59 other isoform, or with tags, fused parts or gaps limits assumed, chain 1 of 2): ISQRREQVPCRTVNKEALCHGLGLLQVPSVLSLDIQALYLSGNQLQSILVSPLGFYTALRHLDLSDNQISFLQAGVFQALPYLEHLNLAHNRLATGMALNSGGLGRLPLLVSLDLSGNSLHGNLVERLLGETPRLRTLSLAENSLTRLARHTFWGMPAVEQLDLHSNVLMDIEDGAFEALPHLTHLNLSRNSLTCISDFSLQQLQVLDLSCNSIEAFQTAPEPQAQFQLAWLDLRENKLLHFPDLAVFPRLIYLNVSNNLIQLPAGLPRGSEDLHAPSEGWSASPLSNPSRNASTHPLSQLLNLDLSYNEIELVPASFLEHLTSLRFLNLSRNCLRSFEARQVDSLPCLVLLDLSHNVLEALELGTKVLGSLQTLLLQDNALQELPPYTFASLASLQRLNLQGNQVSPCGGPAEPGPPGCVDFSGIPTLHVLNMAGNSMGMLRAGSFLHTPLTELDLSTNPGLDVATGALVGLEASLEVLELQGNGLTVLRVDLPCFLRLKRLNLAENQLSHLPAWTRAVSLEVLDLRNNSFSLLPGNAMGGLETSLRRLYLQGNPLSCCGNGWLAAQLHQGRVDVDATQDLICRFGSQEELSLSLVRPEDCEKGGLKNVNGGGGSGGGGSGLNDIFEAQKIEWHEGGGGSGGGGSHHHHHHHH
T4 sequence (P04202 30-390 limits assumed, chain 2 of 2): as the sequence (P04202 30-390) above
T3 sequence (P01137 30-390 limits assumed, one chain of several): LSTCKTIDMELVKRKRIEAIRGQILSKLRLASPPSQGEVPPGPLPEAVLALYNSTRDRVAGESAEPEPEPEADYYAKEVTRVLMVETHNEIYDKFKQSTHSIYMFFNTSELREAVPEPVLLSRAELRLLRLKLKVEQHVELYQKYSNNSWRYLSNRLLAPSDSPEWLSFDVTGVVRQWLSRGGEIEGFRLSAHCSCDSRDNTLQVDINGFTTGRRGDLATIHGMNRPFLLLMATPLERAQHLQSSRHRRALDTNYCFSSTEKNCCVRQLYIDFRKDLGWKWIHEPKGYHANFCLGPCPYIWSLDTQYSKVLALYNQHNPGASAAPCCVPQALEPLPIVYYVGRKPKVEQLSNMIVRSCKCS
T7 sequence (P04202 30-390, chain 1 of 2): as the sequence (P04202 30-390) above
T7 sequence (G3XA59 18-663, chain 2 of 2): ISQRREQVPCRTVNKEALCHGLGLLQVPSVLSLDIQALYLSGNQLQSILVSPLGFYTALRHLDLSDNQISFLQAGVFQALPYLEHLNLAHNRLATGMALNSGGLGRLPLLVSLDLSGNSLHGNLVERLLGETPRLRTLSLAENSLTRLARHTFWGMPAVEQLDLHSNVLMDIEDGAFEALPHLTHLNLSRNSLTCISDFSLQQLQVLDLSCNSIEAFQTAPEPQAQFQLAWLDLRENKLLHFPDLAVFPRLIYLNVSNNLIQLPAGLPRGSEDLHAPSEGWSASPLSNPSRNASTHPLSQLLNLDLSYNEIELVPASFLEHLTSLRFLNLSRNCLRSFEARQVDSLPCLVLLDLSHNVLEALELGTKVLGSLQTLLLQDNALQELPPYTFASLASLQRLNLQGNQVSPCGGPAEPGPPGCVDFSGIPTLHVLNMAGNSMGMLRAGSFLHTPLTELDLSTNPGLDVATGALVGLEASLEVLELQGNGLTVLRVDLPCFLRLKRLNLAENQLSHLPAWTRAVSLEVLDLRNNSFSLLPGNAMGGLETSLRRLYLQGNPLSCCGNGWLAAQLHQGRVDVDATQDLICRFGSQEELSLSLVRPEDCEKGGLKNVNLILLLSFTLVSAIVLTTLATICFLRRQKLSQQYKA
T6 sequence (P01137 30-390, one chain of several): as the sequence (P01137 30-390 limits assumed, one chain of several) above
T5 sequence (P01137 30-390): as the sequence (P01137 30-390 limits assumed, one chain of several) above

Binder | Kd (Human GARP-TGFβ1 complex [1]) | koff (Human GARP-TGFβ1 complex [1]) | kon (Human GARP-TGFβ1 complex [1]) | Kd (Mouse GARP-TGFβ1 complex) | koff (Mouse GARP-TGFβ1 complex) | kon (Mouse GARP-TGFβ1 complex) | fold affinity over H27 (Human GARP-TGFβ1 complex [2]) | Kd (Human GARP-TGFβ1 complex [3]) | koff (Human GARP-TGFβ1 complex [3]) | kon (Human GARP-TGFβ1 complex [3]) | binding result [4] | binding result [5] | binding result [6] | binding result [7] | binding result [8] | binding result [9]
SL2-2 (antibody, human IgG4 S228P, kappa, V domains shown, Human IgG4-S228P/kappa, H27 heavy chain) VH: not shown VL: DIQMTQSPSSLSASVGDRVTITCRASQFISDYLNWYQQKPGKAPKLLIYTASYLDSGVPSRFSGSGSGTDFTLTISSLQPEDFATYYCQQSYSTPLTFGGGTKLEIKR |  |  |  |  |  |  | 5 fold | 135 pM | 5.24e-05 s⁻¹ | 387000 M⁻¹ s⁻¹ |  |  |  |  |  | 
SL2-19 (antibody, human IgG4 S228P, kappa, V domains shown, Human IgG4-S228P/kappa, H27 heavy chain) VH: not shown VL: DIQMTQSPSSLSASVGDRVTITCRASQAISPYLNWYQQKPGKAPKLLIYAASELESGVPSRFSGSGSGTDFTLTISSLQPEDFATYYCQQSYSTPLTFGGGTKLEIKR |  |  |  |  |  |  | 5 fold | 362 pM | 6.95e-05 s⁻¹ | 192000 M⁻¹ s⁻¹ |  |  |  |  |  | 
SL2-12 (antibody, human IgG4 S228P, kappa, V domains shown, Human IgG4-S228P/kappa, H27 heavy chain) VH: not shown VL: DIQMTQSPSSLSASVGDRVTITCRASQYISDYLNWYQQKPGKAPKLLIYSASYLDSGVPSRFSGSGSGTDFTLTISSLQPEDFATYYCQQSYSTPLTFGGGTKLEIKR |  |  |  |  |  |  | 5 fold | 266 pM | 8.51e-05 s⁻¹ | 320000 M⁻¹ s⁻¹ |  |  |  |  |  | 

Second part, the binder after the results:

Kd (Human GARP-TGFβ1 complex [1]) | koff (Human GARP-TGFβ1 complex [1]) | kon (Human GARP-TGFβ1 complex [1]) | Kd (Mouse GARP-TGFβ1 complex) | koff (Mouse GARP-TGFβ1 complex) | kon (Mouse GARP-TGFβ1 complex) | fold affinity over H27 (Human GARP-TGFβ1 complex [2]) | Kd (Human GARP-TGFβ1 complex [3]) | koff (Human GARP-TGFβ1 complex [3]) | kon (Human GARP-TGFβ1 complex [3]) | binding result [4] | binding result [5] | binding result [6] | binding result [7] | binding result [8] | binding result [9] | Binder
332 pM | 0.000138 s⁻¹ | 417000 M⁻¹ s⁻¹ | 226 pM | 0.000106 s⁻¹ | 469000 M⁻¹ s⁻¹ |  |  |  |  |  |  |  |  |  |  | Ab6 (antibody, V domains shown) VH: QVQLVESGGGVVQPGRSLRLSCAASGFAFSSYGMHWVRQAPGKGLEWVAVISYDGNNKYYADSVKGRFTISRDNSKNTLYLQMNSLRAEDTAVYYCARDLLVRFLEWSHKYGMDVWGQGTTVTVSS VL: not shown
254 pM | 9.5e-05 s⁻¹ | 375000 M⁻¹ s⁻¹ | 228 pM | 8.86e-05 s⁻¹ | 389000 M⁻¹ s⁻¹ | 5 fold | 161 pM | 6.08e-05 s⁻¹ | 379000 M⁻¹ s⁻¹ | no binding (tested: 10 nM) | no binding (tested: 10 nM) | binds | binds | binds | binds | SL2-22 (antibody, human IgG4 S228P, kappa, V domains shown, Human IgG4-S228P/kappa, H27 heavy chain; also called TGFβ1 monoclonal antibody SL2-22; anti-human TGFβ1 antibody SL2-22) VH: not shown VL: DIQMTQSPSSLSASVGDRVTITCRASQSISDYLNWYQQKPGKAPKLLIYTASYLDSGVPSRFSGSGSGTDFTLTISSLQPEDFATYYCQQSYSTPLTFGGGTKLEIKR
 |  |  |  |  |  | 5 fold | 475 pM | 8.54e-05 s⁻¹ | 180000 M⁻¹ s⁻¹ |  |  |  |  |  |  | SL2-9 (antibody, human IgG4 S228P, kappa, V domains shown, Human IgG4-S228P/kappa, H27 heavy chain) VH: not shown VL: DIQMTQSPSSLSASVGDRVTITCRASQFISPYLNWYQQKPGKAPKLLIYAASELESGVPSRFSGSGSGTDFTLTISSLQPEDFATYYCQQSYSTPLTFGGGTKLEIKR
